± gives the uncertainty stated by the source.
B1: Zinc finger MYM-type protein 6, residues 427 to 504; numbered along this chain, O95789 (parent)
chain: KLKCQHCNHLFATKPELLFYKGKMFLFCGKNCSDEYKKKNKVVAMCDYCKLQKIIKETVRFSGVDKPFCSEVCKFLSA

Variants of: B1
Experiment: abundance fitness (aPCA) (normalised: wild type 0, dead -1); higher = more abundant; growth selection in yeast, the domain comes from the species named
Settings: Homo sapiens

| Variant | abundance fitness |
| --- | --- |
| F27D | -0.553 ± 0.062 |
| F27T | -0.161 ± 0.04 |
| F27V | -0.161 ± 0.036 |
| V64C | -0.432 ± 0.15 |
| V64Q | -0.009 ± 0.11 |
| V64K | -0.298 ± 0.24 |
| V64I | 0.365 ± 0.2 |
| V64W | -0.765 ± 0.18 |
| E57H | 0.272 ± 0.27 |
| E57G | -0.163 ± 0.069 |
| N31R | 0.012 ± 0.029 |
| N31E | -0.058 ± 0.039 |
| N31W | -0.054 ± 0.037 |
| N31V | -0.077 ± 0.031 |
| G63D | 0.098 ± 0.14 |
| G63P | -0.201 ± 0.31 |
| G63C | -0.709 ± 0.23 |
| G63S | -0.53 ± 0.23 |
| G63Q | -0.191 ± 0.18 |
| G63E | -0.502 ± 0.17 |
| G63R | -0.554 ± 0.13 |

| Variant | abundance fitness |
| --- | --- |
| G63A | -0.495 ± 0.16 |
| V72A | 0.252 ± 0.07 |
| V72S | 0.239 ± 0.092 |
| V72G | 0.036 ± 0.073 |
| V72R | 0.411 ± 0.066 |
| L17Q | 0.156 ± 0.054 |
| L17K | 0.102 ± 0.046 |
| L17P | 0.024 ± 0.038 |
| L17E | 0.166 ± 0.037 |
| L17N | 0.19 ± 0.38 |
| L17M | 0.061 ± 0.054 |
| L17Y | -0.081 ± 0.072 |
| L17D | -0.044 ± 0.051 |
| K1H | -0.209 ± 0.067 |
| K1D | -0.008 ± 0.055 |
| K1E | -0.104 ± 0.046 |
| K1W | -0.536 ± 0.038 |
| K1F | -0.697 ± 0.34 |
| K1C | -0.147 ± 0.048 |
| S77N | -0.434 ± 0.25 |
| S77W | -0.106 ± 0.093 |

| Variant | abundance fitness |
| --- | --- |
| S77D | -0.14 ± 0.17 |
| S77T | -1.01 ± 0.37 |
| S77Y | -0.09 ± 0.28 |
| S77G | 0.139 ± 0.079 |
| I55Q | -0.185 ± 0.18 |
| I55K | -0.138 ± 0.46 |
| I55P | 0.281 ± 0.2 |
| G22S | -0.049 ± 0.048 |
| K66Q | -0.348 ± 0.23 |
| K66E | 0.161 ± 0.16 |
| K66Y | 0.215 ± 0.33 |
| K66S | -0.669 ± 0.31 |
| S62A | 0.054 ± 0.079 |
| S62Y | 0.176 ± 0.15 |
| S62P | -0.325 ± 0.12 |
| S62M | 0.432 ± 0.17 |
| S62D | 0.914 ± 0.083 |
| S62W | -0.696 ± 0.24 |
| S62T | -0.141 ± 0.28 |
| F19R | 0.103 ± 0.03 |
| C32E | -1.01 ± 0.096 |

| Variant | abundance fitness |
| --- | --- |
| C32G | -1.02 ± 0.069 |
| C32Q | -0.944 ± 0.35 |
| C32W | -0.861 ± 0.088 |
| C32P | -1.05 ± 0.14 |
| C32D | -0.607 ± 0.074 |
| R60K | 0.041 ± 0.14 |
| R60H | 0.001 ± 0.28 |
| R60V | -0.093 ± 0.12 |
| R60E | 0.008 ± 0.24 |
| R60Y | -0.423 ± 0.38 |
| G29W | -0.602 ± 0.041 |
| G29V | -0.204 ± 0.034 |
| G29A | -0.033 ± 0.029 |
| G29P | -0.683 ± 0.069 |
| G29S | -0.123 ± 0.038 |
| G29C | -0.096 ± 0.052 |
| Q52L | -0.128 ± 0.093 |
| Q52K | 0.51 ± 0.11 |
| Q52A | -0.485 ± 0.11 |
| Q52W | -0.483 ± 0.2 |

Source: the Human Domainome abundance scans (Beltran et al. 2025)
